Changes are numbered by the printed parent chain. Each block holds one binder with its values, some of them ahead of it.
Columns and labels:
[1] = biological target: T1, monovalent hVISTA-ECD (amino acids 32-193 of SEQ ID NO: 1 with a 7xHis tail) (human, UniProt Q9H7M9 33-193); experiment: SPR, mAb captured on Protein A, hVISTA-ECD analyte, 37 C, pH 6.7
T1 construct: also called huVISTA-His; human VISTA-ECD
Protocol: (§1) Binding kinetics were measured using a Biacore® T100 instrument (GE Healthcare). Protein A (ThermoFisher Scientific catalog #21181) was diluted to 20 μg/ml in 10 mM sodium acetate pH 4.5 and immobilized onto flow cells of a CM5 biosensor following the manufacturer's amine coupling protocol (GE Healthcare), targeting 2,000 RU immobilization density of Protein A per flow cell. The assay was conducted at 37° C. using PBST (137 mM sodium chloride, 2.7 mM potassium chloride, 10 mM phosphate buffer, 0.05% Tween 20) running buffer at pH 7.4, 6.7 and 6.0. Antibodies were diluted to 25 nM in PBST pH 7.4, and were captured across active biosensor flow cells at 5 ul/min for 40 seconds. A concentration series of 100-10 nM monovalent hVISTA-ECD (SEQ ID NO: 325) was prepared in pH 7.4, 6.7 and 6.0 running buffers, and was injected over the captured antibodies at 40 ul/min to measure association and dissociation. Two 15 second injections of 10 mM glycine pH 1.5 were used to regenerate the Protein A capture surface between assay cycles. Rate constants ka (kon) and kd (koff) were derived from reference flow cell and 0 nM blank-subtracted sensorgrams, and were fit to a 1:1 binding model in Biacore® T200 Evaluation Software v.2.0.
(§2) The affinity constant, KD was calculated as the ratio of rate constants koff/kₒₙ for each VISTA antibody. The % Rmax was calculated to compare how pH affects an antibody's binding capacity for VISTA, and represents the measured maximal VISTA binding response relative to the expected maximal VISTA binding response. The % Rmax is defined as the ratio of the reference-subtracted ‘binding’ report point response at the end of the 100 nM VISTA injection for each antibody (Rmax) relative to the expected VISTA binding response (Rexp). Rexp is calculated as Rexp=[(VISTA-ECD molecular weight/mAb molecular weight)×(mAb ‘capture’ report point response (RUs)]×2 binding sites per mAb.

[2] = biological target: T1, monovalent hVISTA-ECD (amino acids …); experiment: SPR, mAb captured on Protein A, hVISTA-ECD analyte, 37 C, pH 6.0
Protocol: as §1, §2

[3] = biological target: T1, monovalent hVISTA-ECD (amino acids …); experiment: SPR, mAb captured on Protein A, hVISTA-ECD analyte, 37 C, pH 7.4
Protocol: as §1, §2

[4] = biological target: T1, monovalent hVISTA-ECD (amino acids …); experiment: SPR, mAb captured on Protein A, hVISTA-ECD analyte, 37 C, pH 6.0; remark: listed apart in the source
Protocol: as §1, §2

[5] = biological target: T1, monovalent hVISTA-ECD (amino acids …); experiment: SPR, mAb captured on Protein A, hVISTA-ECD analyte, 37 C, pH 6.7; remark: listed apart in the source
Protocol: as §1, §2

[6] = biological target: T1, monovalent hVISTA-ECD (amino acids …); experiment: SPR, mAb on Protein A, 37C, pH 7.4
Protocol: (§3) Binding of several preparations of each of the '029 progeny clones and of the parent '029 antibodies, formatted as IgG1.3 antibodies, to human VISTA at pH 6.0 and 7.4 was measured by Surface plasmon resonance (SPR). SPR analysis was performed to measure koff and KD binding affinity measurements for VISTA Abs at acidic and neutral pHs using a Biacore® T100 instrument (GE Healthcare). Protein A (ThermoFisher Scientific catalog #21181) was diluted to 20 μg/ml in 10 mM sodium acetate pH 4.5 and immobilized onto flow cells of a CM5 biosensor following the manufacturer's amine coupling protocol (GE Healthcare), targeting 2,000 RU immobilization density of Protein A per flow cell. SPR experiments were conducted at 37° C. using PBST (137 mM sodium chloride, 2.7 mM potassium chloride, 10 mM phosphate buffer, 0.05% Tween® 20) running buffer at pH 7.4 and 6.0. Antibodies were diluted to 25 nM in PBST pH 7.4, and were captured across active biosensor flow cells at 5 ul/min for 60 seconds. A concentration series of 50-5 nM monovalent hVISTA-ECD (SEQ ID NO: 325) was prepared in pH 7.4 and 6.0 running buffers, and was injected over the captured antibodies at 40 ul/min to measure association and dissociation. Two 15 second injections of 10 mM glycine pH 1.5 were used to regenerate the Protein A capture surface between assay cycles. Rate constants ka (kₒₙ) and kd (koff) were derived from reference flow cell and 0 nM blank-subtracted sensorgrams, and were fit to a 1:1 binding model in Biacore® T200 Evaluation Software v.2.0. The affinity constant, KD was calculated as the ratio of rate constants koff/kₒₙ for each VISTA antibody.

[7] = biological target: T1, monovalent hVISTA-ECD (amino acids …); experiment: SPR, mAb on Protein A, 37C, pH 6.0
Protocol: as §3

[8] = biological target: T1, monovalent hVISTA-ECD (amino acids …); experiment: SPR, mAb on Protein A, 37C, pH 6.0; pH 6.0
Protocol: as §3

koff [1]: 0.00099 s⁻¹
koff [2]: 0.00071 s⁻¹
koff [3]: 0.0035 s⁻¹
B1: P1-068761_E30D_E32Y (antibody, human IgG1, kappa, V domains shown)
VH: EVQLVESGGGLVQPGKSLRLSCAASGFTLDDYAMHWVRQAPGKGLEWVSGINWNSEEIGYADSVKGRFTISRDNAKNSLYLQMNSLRTEDTALYYCAKVPGYSHGWIDAEDVWGQGTMVTVSS
VL: not shown
notes: also called P1-070876

koff [4]: 0.0035 s⁻¹
B2: P1-068767_E30D_E55A (antibody, human IgG1, kappa, V domains shown)
VH: B1 VH with N52D, E56A, E57N, H104G, V112D
VL: not shown
notes: also called P1-070922

koff [5]: 0.027 s⁻¹
B3: P1-068767_E30D_E100fF (antibody, human IgG1, kappa, V domains shown)
VH: B1 VH with N52D, E57N, H104G, E110F, V112D
VL: not shown
notes: also called P1-070924

koff [1]: 0.00095 s⁻¹
koff [2]: 0.0011 s⁻¹
koff [3]: 0.0019 s⁻¹
B4: P1-068761_E32Y_E100fF (antibody, human IgG1, kappa, V domains shown)
VH: B1 VH with D30E, E110F
VL: not shown
notes: also called P1-070888

koff [1]: 0.00083 s⁻¹
koff [2]: 0.0007 s⁻¹
koff [3]: 0.0032 s⁻¹
B5: P1-068761_E32Y_E56N (antibody, human IgG1, kappa, V domains shown)
VH: B1 VH with D30E, E57N
VL: not shown
notes: also called P1-070884

koff [4]: 0.0023 s⁻¹
B6: P1-068767_E30D_D52N (antibody, human IgG1, kappa, V domains shown)
VH: B1 VH with E57N, H104G, V112D
VL: not shown
notes: also called P1-070914

koff [4]: 0.0012 s⁻¹
koff [3]: 0.0067 s⁻¹
koff [5]: 0.0018 s⁻¹
B7: P1-068767_D52N_D102V (antibody, human IgG1, kappa, V domains shown)
VH: B1 VH with D30E, E57N, H104G
VL: not shown
notes: also called P1-070930

Kd [6]: 45 nM
koff [6]: 0.0059 s⁻¹
kon [6]: 130000 M⁻¹ s⁻¹
Kd [7]: 7.3 nM
koff [7]: 0.0059 s⁻¹
kon [7]: 810000 M⁻¹ s⁻¹
B8: P1-071757 (P1-061029_HC_K16R_T84A, FW revertant) (antibody, V domains shown)
VH: B1 VH with K16R, E56A, E57N, T88A, H104G, E110F
VL: not shown
notes: VH/VL only

Kd [6]: 40 nM
koff [6]: 0.006 s⁻¹
kon [6]: 150000 M⁻¹ s⁻¹
Kd [7]: 6.9 nM
koff [7]: 0.006 s⁻¹
kon [7]: 870000 M⁻¹ s⁻¹
B9: P1-071761 (P1-061029_HC_T84A, FW revertant) (antibody, V domains shown)
VH: B1 VH with E56A, E57N, T88A, H104G, E110F
VL: not shown
notes: VH/VL only

koff [4]: 0.066 s⁻¹
B10: P1-068767_D52N_E100fF (antibody, human IgG1, kappa, V domains shown)
VH: B1 VH with D30E, E57N, H104G, E110F, V112D
VL: not shown
notes: also called P1-070928

koff [4]: 0.0023 s⁻¹
koff [5]: 0.0085 s⁻¹
Kd [8]: 11 nM
koff [8]: 0.0025 s⁻¹
kon [8]: 220000 M⁻¹ s⁻¹
B11: P1-070908 (P1-068767_E55A) IgG1.3 (antibody, V domains shown)
VH: B1 VH with D30E, N52D, E56A, E57N, H104G, V112D
VL: not shown
notes: IgG1.3

koff [4]: 0.0015 s⁻¹
koff [5]: 0.0055 s⁻¹
Kd [8]: 7.4 nM
koff [8]: 0.0017 s⁻¹
kon [8]: 230000 M⁻¹ s⁻¹
B12: P1-070916 (P1-068767_D52N_E55A) IgG1.3 (antibody, V domains shown)
VH: B1 VH with D30E, E56A, E57N, H104G, V112D
VL: not shown
notes: IgG1.3

koff [1]: 0.00057 s⁻¹
koff [2]: 0.00033 s⁻¹
koff [3]: 0.0035 s⁻¹
B13: P1-068761_E30D_E100fF (antibody, human IgG1, kappa, V domains shown)
VH: B1 VH with Y32E, E110F
VL: not shown
notes: also called P1-070896

koff [1]: 0.0013 s⁻¹
koff [2]: 0.00092 s⁻¹
koff [3]: 0.0055 s⁻¹
B14: P1-068761_E32Y_H100G (antibody, human IgG1, kappa, V domains shown)
VH: B1 VH with D30E, H104G
VL: not shown
notes: also called P1-070886

koff [4]: 0.003 s⁻¹
koff [3]: 0.011 s⁻¹
koff [5]: 0.0035 s⁻¹
B15: P1-068767_E30D_D102V (antibody, human IgG1, kappa, V domains shown)
VH: B1 VH with N52D, E57N, H104G
VL: not shown
notes: also called P1-070926

koff [4]: 0.0032 s⁻¹
B16: P1-068767_E30D (antibody, human IgG1, kappa, V domains shown)
VH: B1 VH with N52D, E57N, H104G, V112D
VL: not shown
notes: also called P1-070904

koff [4]: 0.002 s⁻¹
koff [3]: 0.01 s⁻¹
koff [5]: 0.0031 s⁻¹
B17: P1-068767_E55A_D102V (antibody, human IgG1, kappa, V domains shown)
VH: B1 VH with D30E, N52D, E56A, E57N, H104G
VL: not shown
notes: also called P1-070932

koff [1]: 0.00022 s⁻¹
koff [2]: 0.00013 s⁻¹
koff [3]: 0.0013 s⁻¹
B18: P1-068761_E100fF (antibody, human IgG1, kappa, V domains shown)
VH: B1 VH with D30E, Y32E, E110F
VL: not shown
notes: also called P1-070874

koff [1]: 0.0006 s⁻¹
koff [2]: 0.00057 s⁻¹
koff [3]: 0.0027 s⁻¹
B19: P1-068761_E32Y_E55A (antibody, human IgG1, kappa, V domains shown)
VH: B1 VH with D30E, E56A
VL: not shown
notes: also called P1-070882

koff [4]: 0.0015 s⁻¹
koff [5]: 0.0067 s⁻¹
Kd [8]: 6.7 nM
koff [8]: 0.0016 s⁻¹
kon [8]: 240000 M⁻¹ s⁻¹
B20: P1-070906 (P1-068767_D52N) IgG1.3 (antibody, V domains shown)
VH: B1 VH with D30E, E57N, H104G, V112D
VL: not shown
notes: IgG1.3

koff [4]: 0.002 s⁻¹
koff [3]: 0.0092 s⁻¹
koff [5]: 0.0028 s⁻¹
B21: P1-068767_D102V (antibody, human IgG1, kappa, V domains shown)
VH: B1 VH with D30E, N52D, E57N, H104G
VL: not shown
notes: also called P1-070912

koff [1]: 0.00064 s⁻¹
koff [2]: 0.00041 s⁻¹
koff [3]: 0.0025 s⁻¹
B22: P1-068761_E32Y (antibody, human IgG1, kappa, V domains shown)
VH: B1 VH with D30E
VL: not shown
notes: also called P1-070866

koff [1]: 0.00061 s⁻¹
koff [2]: 0.00038 s⁻¹
koff [3]: 0.003 s⁻¹
B23: P1-068761_E56N_E100fF (antibody, human IgG1, kappa, V domains shown)
VH: B1 VH with D30E, Y32E, E57N, E110F
VL: not shown
notes: also called P1-070902

koff [1]: 0.00028 s⁻¹
koff [2]: 0.00018 s⁻¹
koff [3]: 0.0017 s⁻¹
B24: P1-068761_E55A_E100fF (antibody, human IgG1, kappa, V domains shown)
VH: B1 VH with D30E, Y32E, E56A, E110F
VL: not shown
notes: also called P1-070898

koff [4]: 0.013 s⁻¹
B25: P1-068767_E55A_E100fF (antibody, human IgG1, kappa, V domains shown)
VH: B1 VH with D30E, N52D, E56A, E57N, H104G, E110F, V112D
VL: not shown
notes: also called P1-070918

Kd [6]: 46 nM
koff [6]: 0.006 s⁻¹
kon [6]: 130000 M⁻¹ s⁻¹
Kd [7]: 7.4 nM
koff [7]: 0.0059 s⁻¹
kon [7]: 800000 M⁻¹ s⁻¹
B26: P1-071759 (P1-061029_HC_K16R, FW revertant) (antibody, V domains shown)
VH: B1 VH with K16R, E56A, E57N, H104G, E110F
VL: not shown
notes: VH/VL only

koff [5]: 0.026 s⁻¹
B27: P1-068767_E100fF (antibody, human IgG1, kappa, V domains shown)
VH: B1 VH with D30E, N52D, E57N, H104G, E110F, V112D
VL: not shown
notes: also called P1-070910

koff [1]: 0.0004 s⁻¹
koff [2]: 0.00021 s⁻¹
koff [3]: 0.0023 s⁻¹
B28: P1-068761_H100G_E100fF (antibody, human IgG1, kappa, V domains shown)
VH: B1 VH with D30E, Y32E, H104G, E110F
VL: not shown
notes: also called P1-070880
